Assay results reported in IntAct's records for PubMed 11238952.

B1: Cyclic AMP-dependent transcription factor ATF-4 (Homo sapiens), P18848 (parent)
chain: MTEMSFLSSEVLVGDLMSPFDQSGLGAEESLGLLDDYLEVAKHFKPHGFSSDKAKAGSSEWLAVDGLVSPSNNSKEDAFSGTDWMLEKMDLKEFDLDALLGIDDLETMPDDLLTTLDDTCDLFAPLVQETNKQPPQTVNPIGHLPESLTKPDQVAPFTFLQPLPLSPGVLSSTPDHSFSLELGSEVDITEGDRKPDYTAYVAMIPQCIKEEDTPSDNDSGICMSPESYLGSPQHSPSTRGSPNRSLPSPGVLCGSARPKPYDPPGEKMVAAKVKGEKLDKKLKKMEQNKTAATRYRQKKRAEQEALTGECKELEKKNEALKERADSLAKEIQYLKDLIEEVRKARGKKRVP

Variants of: B1
Settings: with BTRC

Variant | effect of a mutation on the interaction
S219N | decreasing interaction
D218N | decreasing interaction

Variants of: B1
Settings: with BTRC
Remark: another data set of the same source

Variant | effect of a mutation on the interaction
S219N | disrupting interaction
